These results are taken from patent US20210047410A1 (ONCOLMMUNE, published 2021).

Residue numbers refer to the chain shown, from its start.

Test [1] deals with OFP-tagged human CTLA-4 on CHO cells (human) (UniProt P16410).
For test [2], the target named is human CTLA-4 on or in cells (T cells of Ctla4 h/h knock-in mice; CHO stable lines and 293T cells expressing hCTLA-4) (human) (UniProt P16410). Kind of test: cell-based or functional assay.
Test [3] deals with human CTLA-4-Fc (human) (UniProt P16410). Kind of test: competition ELISA; hB7-2-Fc coated, biotinylated CTLA-4-Fc at […]. (In general: In an ELISA, binding on a coated surface is turned into a signal by an enzyme label.)
human CTLA-4-Fc (human), sequence (P16410 37-161 limits assumed): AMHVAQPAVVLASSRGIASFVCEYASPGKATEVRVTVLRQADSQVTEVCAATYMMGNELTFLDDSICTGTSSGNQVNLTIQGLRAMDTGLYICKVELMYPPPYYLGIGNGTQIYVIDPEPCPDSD
Test [4] has the same target. Briefly: competition ELISA; hB7-1-Fc coated at 0.5 µg/ml, biotinylated CTLA-4-Fc at […].
Test [5] shares this target. Briefly: BLI (Octet Red96); antibody on anti-hIgG-Fc biosensor, antigen in solution from 600 nM. For orientation: BLI is a label-free optical method that tracks binding on a fibre tip over time.
The target is the same in test [6]. Briefly: ELISA: antibody coated at varying doses, biotinylated CTLA-4-Fc at […], streptavidin-HRP.
Test [7] shares this target. Briefly: competition ELISA: B7-2-Fc immobilized (blocked ligand), biotinylated CTLA-4-Fc at […], antibody varied.
The target is the same in test [8]. Briefly: competition ELISA: hCTLA-4-Fc coated at 1 µg/ml, blocked ligand biotinylated hB7-1-Fc at […], antibody varied.
Test [9] shares this target. Kind of test: flow cytometry, competition: 200 ng hCTLA-4-Fc on CHO cells expressing mouse B7-1 (blocked ligand), antibody varied. On the technique in general: A flow cytometer gives signals particle by particle.
Test [10] shares this target. Kind of test: competition ELISA: hCTLA-4-Ig immobilized at […], blocked ligand biotinylated hB7-1-Fc at […], antibody varied, avidin-HRP.
The target is the same in test [11]. Briefly: flow cytometry, competition: biotinylated CTLA-4-Fc on CHO cells expressing hB7-1 (blocked ligand), antibody varied, PE-streptavidin.
Test [12] shares this target. Kind of test: flow cytometry, competition: biotinylated CTLA-4-Fc on CHO cells expressing mB7-2 (blocked ligand), antibody varied, PE-streptavidin.
For test [13] the target is unchanged. Kind of test: flow cytometry, competition: biotinylated CTLA-4-Fc 200 ng/test on hB7-1-positive, FcR-negative L929 cells (blocked ligand), antibody varied, PE-streptavidin.
The target in test [14] is polyhistidine tagged human CTLA-4 (human) (UniProt P16410). Kind of test: flow cytometry, competition: 200 ng biotinylated polyhistidine-tagged CTLA-4 on CHO cells expressing human B7-1 (blocked ligand), antibody varied, PE-streptavidin.
polyhistidine tagged human CTLA-4 (human), sequence (P16410 36-162 limits assumed): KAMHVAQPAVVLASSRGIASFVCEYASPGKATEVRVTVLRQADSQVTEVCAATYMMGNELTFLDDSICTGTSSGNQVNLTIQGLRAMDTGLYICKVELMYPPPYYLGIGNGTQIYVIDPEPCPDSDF
The target in test [15] is T1, Recombinant mouse Ctla-4Fc protein (mouse, UniProt P09793 36-162, limits assumed).
T1 construct: Bought; also called biotinylated mouse Ctla-4-Fc; not shown: Fc part; not described
Kind of test: competition ELISA: B7-1 coated (blocked ligand), biotinylated mouse Ctla-4-Fc, antibody varied, avidin-HRP.

Test [16] has as its target T1, Recombinant mouse Ctla-4Fc protein. Briefly: competition ELISA: B7-2 coated (blocked ligand), biotinylated mouse Ctla-4-Fc, antibody varied, avidin-HRP.
Test [17] addresses mouse Ctla-4 in cells (spleen CD3+CD4+ cells of Ctla4 m/m mice) (mouse) (UniProt P09793). Briefly: cell-based or functional assay.
Test [18] deals with T1, Recombinant mouse Ctla-4Fc protein. Kind of test: competition ELISA: mB7-2 coated (blocked ligand), biotinylated mouse Ctla-4-Fc, antibody varied.
For test [19] the target is unchanged. Briefly: ELISA, binding to soluble mouse Ctla-4-Fc; neither sheet nor legend says which component's concentration is on the axis.
For test [20] the target is unchanged. Briefly: ELISA: plate bound mouse Ctla-4-Fc, antibody varied.
The target of test [21] is human CTLA-4-Fc (human) (UniProt P16410). Briefly: BLI (Octet Red96).
The target of test [22] is polyhistidine tagged human CTLA-4 (human) (UniProt P16410). Briefly: ELISA; His-hCTLA-4 coated at 0.5 µg/ml, varying antibody doses.

OFP-tagged human CTLA-4 on CHO cells (human), sequence (P16410 36-223): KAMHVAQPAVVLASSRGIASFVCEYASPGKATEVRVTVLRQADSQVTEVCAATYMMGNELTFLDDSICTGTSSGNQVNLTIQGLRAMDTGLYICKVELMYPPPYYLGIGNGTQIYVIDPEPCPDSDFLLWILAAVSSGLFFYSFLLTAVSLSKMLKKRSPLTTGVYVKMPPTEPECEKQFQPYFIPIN
human CTLA-4 on or in cells (T cells of Ctla4 h/h knock-in mice; CHO stable lines and 293T cells expressing hCTLA-4) (human), sequence (P16410 36-223): as above

In test [1], “B7-H2-GFP on transfected P815 cells (ligand)” yielded a % GFP+OFP+ cells (upper right quadrant), Mix-0 h of 0.19%; a % GFP+OFP+ cells (upper right quadrant), Mix-1 h of 0.3%; a % GFP+OFP+ cells (upper right quadrant), Mix-4 h of 0.49%.
As usually defined, the IC50 is the concentration that gives 50% inhibition. Usually Kd stands for a measure of binding affinity in units of concentration. A lower Kd goes with a tighter complex. Usually EC50 (read off the curve) stands for the midpoint of the concentration-response curve. The molecule “L3D10 chimera antibody (human IgG1 Fc and the variable regions of mouse anti-human CTLA-4 mAb L3D10)” displayed a level of hB7-2 on DC of human CD34+ reconstituted NSG mice in test [2] of 2.5 fold. The IC50 with human CTLA-4-Fc (human) [3] amounted to 0.1 µg/mL; in the test with human CTLA-4-Fc (human) [4], 3 µg/mL. In addition, in the test with human CTLA-4-Fc (human) [4], the lowest concentration with significant blocking was found to be 0.2 µg/mL. The molecule also yielded a Kd with human CTLA-4-Fc (human) [5] of 2.3 nM. The same molecule registered an EC50 (read off the curve) in the test with human CTLA-4-Fc (human) [6] of 1 µg/mL. Further, the IC50 (read off the curve) is 0.1 µg/mL in the test with human CTLA-4-Fc (human) [7]; 0.2 µg/mL in the test with human CTLA-4-Fc (human) [8]; 1 µg/mL in the test with human CTLA-4-Fc (human) [9]; 0.4 µg/mL with human CTLA-4-Fc (human) [10]; 8 µg/mL with human CTLA-4-Fc (human) [11]; 0.9 µg/mL with human CTLA-4-Fc (human) [12]. Further, the IC50 (read off the curve) with human CTLA-4-Fc (human) [13] came to 1 µg/mL; in test [14] it was 2 µg/mL.
With “hamster anti-mouse Ctla-4 mAb 4F10 (antibody)”, the IC50 (read off the curve) is 1 µg/mL in [15] and 0.3 µg/mL in test [16].

B1: anti-mouse Ctla-4 mAb 9D9 (antibody, V domains shown)
VH: EAKLQESGPVLVKPGASVKMSCKASGYTFTDYYMNWVKQSHGKSLEWIGVINPYNGDTSYNQKFKGKATLTVDKSSSTAYMELNSLTSEDSAVYYCARYYGSWFAYWGQGTLITVST
VL: DIVMTQTTLSLPVSLGDQASISCRSSQSIVHSNGNTYLEWYLQKPGQSPKLLIYKVSNRFSGVPDRFSGSGSGTDFTLKISRVEAEDLGVYYCFQGSHVPYTFGGGTKLEIK
In the case of B1, the level of mB7-1 on DC of WT mice in [17] was found to be 15%. Further, the “IC50 (read off the curve)” value in [18] is roughly 2 µg/mL. For the same molecule, the “EC50 (read off the curve)” value in [19] is roughly 0.4 µg/mL.

B2: anti-mouse Ctla-4 mAb 9H10 (antibody, from another filing)
scFv: YPYDVPDYAGAQPARSDIVMTQSPSSLAVSVGEKVTISCKSSQSLLYGSSHYLAWYQQKVGQSPKLLIYWASTRHTGIPDRFIGSGSGTDFTLSLSSVQAEDMADYFCQQYFSTPWTFGAGTRVEIKSGSGGGSGGGSGGGSQVQLLQSESELVKPGASVKLSCKTSGYTFTDYYIHWVKQKPGQGLEWIGLINPNNDGTNYNQKFQGKATLTADKSSSTAYMELNSLTFDDSVIYFCARASSRLRMARTTSDYYAMDYWGQGIQVTVSSVDSSGSGGCKPCICTVPEVSSVFIFPPKPKDVLTITLTPKVTCVVVDISKDDPEVQFSWFVDDVEVHTAQTQPREEQFNSTFRSVSELPIMHQDWLNGKEFKCRVNSAAFPAPIEKTISKTKGRPKAPQVYTIPPPKEQMAKDKVSLTCMITDFFPEDITVEWQWNGQPAENYKNTQPIMDTDGSYFVYSKLNVQKSNWEAGNTFTCSVLHEGLHNHHTEKSLSHSPGK
As for B2, in [20], the EC50 (read off the curve) came out at 1 µg/mL.

B3: HL12 (humanized L3D10 clone) (antibody, from another filing, V domains shown)
VH: QVQLQESGPGLVKPSETLSLTCTVSGFSLTSYGLSWIRQPPGKGLEWIGYIWYDGNTNFHPSLKSRVTISKDTSKNQFSLKLSSVTAADTAVYYCAKTEGHYYGSNYGYYALDYWGQGTSVTVSS
VL: DIQMTQSPSSLSASVGDRVTITCRASENIYSNLAWYQQKQGKAPKLLLYAATNLQDGVPSRFSGSGSGTDYTLTISSLQPEDFATYFCQHLWGTPYTFGQGTKLEIK
Broadly, the koff is the rate constant with which the complex falls apart. As usually defined, the kon is the second-order rate constant of association. Take B3: the fold increase in off-rate against L3D10 with human CTLA-4-Fc (human) [21] is 4 fold. In [22], this molecule displayed a fold reduction of binding at pH 4.5 against pH 7.0 (by increase of IC50) greater than 100 fold and a fold reduction of binding at pH 5.5 against pH 7.0 (by increase of IC50) greater than 10 fold. Besides, in the test with human CTLA-4-Fc (human) [5], the Kd amounted to 7.2 nM, the off-rate constant (koff) is 0.0016 s⁻¹ and the kon was 230000 M⁻¹ s⁻¹.

B4: HL32 (humanized L3D10 clone) (antibody, from another filing, V domains shown)
VH: B3 VH with P61S, S62P, K71V, S120L
VL: B3 VL
As for B4, in the test with human CTLA-4-Fc (human) [21], the fold increase in off-rate against L3D10 came to 4 fold. For the same molecule, in test [22], the fold reduction of binding at pH 4.5 against pH 7.0 (by increase of IC50) was greater than 100 fold and the fold reduction of binding at pH 5.5 against pH 7.0 (by increase of IC50) is greater than 10 fold. In the test with human CTLA-4-Fc (human) [5], this molecule showed a Kd of 7.1 nM, a koff of 0.0019 s⁻¹ and a kon of 270000 M⁻¹ s⁻¹.
